Assay results published in the supplement of paper PMC7877785.
± gives the uncertainty stated by the source.

Assay: self-splicing fitness, log relative to wild type (ln ratio); higher = more splicing; Tetrahymena group I intron in knt gene, E. coli kanamycin selection, DiMSum; sequences stand for … in CUCUCU…GGAGGGAAAAGUUAUCAGGCAUGCACCUGGUAGCUAGUCUUUAAACCAAUAGAUUGCAUCGGUUUAAAAGGCAAGACCGUCAAAUUGCGGGAAAGGGGUCAACAGCCGUUCAGUACCAAGUCUCAGGGGAAACUUUGAGAUGGCCUUGCAAAGGGUAUGGUAAUAAGCUGACGGACAUGGUCCUAACCACGCAGCCAAGUCCUAAGUCAACAGAUCUUCUGUUGAUAUGGAUGCAGUUCACAGACUAAAUGUCGGUCGGGGAAGAUGUAUUCUUCUCAUAAGAUAUAGUCGGACCUCUCCUUAAUGGGAGCUAGCGGAUGAAGUGAUGCAACACUGGAGCCGCUGGGAACUAAUUUGUAUGCGAAAGUAUAUUGAUUAGUUUUGGAGUACUCGUGGUCG
Summary of the method: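 Library with all eight P1ex-region intron nucleotides randomised, intron inside the knt kanamycin-resistance gene on pET-22b(+), in E. coli BL21(DE3). Cells grew overnight at 37°C or 30°C on LB agar with or without 25 μg/mL kanamycin (plus 100 μg/mL carbenicillin, 50 μM IPTG, 0.2% rhamnose), in six replicate transformations. Pooled colonies were amplicon-sequenced on Illumina HiSeq 2500. DiMSum fitness is the error-weighted combination of wild-type-normalised replicate fold changes, kanamycin versus none.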

| Sequence | self-splicing fitness (ln) (30 °C) | self-splicing fitness (ln) (37 °C) |
| --- | --- | --- |
| UACCAGCAAUAUUACGUUAC | -2.83 ± 0.3 | -2.26 ± 0.21 |
| AAUUAGCAAUAUUACGGUGA | -1.7 ± 0.084 | -0.534 ± 0.099 |
| CUUAAGCAAUAUUACGAGUG | -1.39 ± 0.068 | -0.428 ± 0.1 |
| ACUGAGCAAUAUUACGAUGG | -2.16 ± 0.096 | -1.13 ± 0.1 |
| GUGCAGCAAUAUUACGGAUU | -1.66 ± 0.12 | -0.37 ± 0.11 |
| ACGGAGCAAUAUUACGUCCA | -3.19 ± 0.17 | -0.993 ± 0.15 |
| UACGAGCAAUAUUACGGUUA | -0.815 ± 0.11 | 0.152 ± 0.11 |
| UUAGAGCAAUAUUACGAUAU | -1.72 ± 0.18 | -1.54 ± 0.23 |
| UUCAAGCAAUAUUACGUGAG | -0.36 ± 0.071 | 0.0932 ± 0.088 |
| CCGGAGCAAUAUUACGGACG | -2.82 ± 0.19 | -1.31 ± 0.25 |
| CCCAAGCAAUAUUACGUACA | -2.94 ± 0.16 | -3.39 ± 0.23 |
| UGAAAGCAAUAUUACGAGGA | -3.43 ± 0.24 | -1.81 ± 0.15 |
| UCACAGCAAUAUUACGCAUA | -2.02 ± 0.097 | -1.68 ± 0.093 |
| CCUUAGCAAUAUUACGUUAA | -3.13 ± 0.27 | -2.71 ± 0.31 |
| UAUAAGCAAUAUUACGUGGC | -3.47 ± 0.32 | -2.73 ± 0.44 |
| GUGGAGCAAUAUUACGAAAA | -2.27 ± 0.43 | – |
| AACAAGCAAUAUUACGCUUC | -4.57 ± 0.3 | -2.75 ± 0.26 |
| CGUCAGCAAUAUUACGUAGA | -1.3 ± 0.069 | -0.865 ± 0.1 |
| CCCUAGCAAUAUUACGAGUG | -3.51 ± 0.16 | -2.28 ± 0.12 |
| CUGCAGCAAUAUUACGAGUA | -2.85 ± 0.23 | -2.97 ± 0.28 |

| Sequence | self-splicing fitness (ln) (30 °C) | self-splicing fitness (ln) (37 °C) |
| --- | --- | --- |
| GUACAGCAAUAUUACGACCA | -1.85 ± 0.25 | -0.829 ± 0.33 |
| ACUUAGCAAUAUUACGUACG | -1.45 ± 0.099 | -1.04 ± 0.13 |
| CUCGAGCAAUAUUACGGAUC | – | 0.135 ± 0.27 |
| CGCUAGCAAUAUUACGACAA | -2.04 ± 0.18 | -1.83 ± 0.2 |
| AUAAAGCAAUAUUACGAGUA | -1.12 ± 0.086 | -0.205 ± 0.12 |
| UGCUAGCAAUAUUACGUAUU | -3.06 ± 0.18 | -1.72 ± 0.24 |
| CCCAAGCAAUAUUACGUGUU | -4.07 ± 0.18 | -2.46 ± 0.13 |
| GUGCAGCAAUAUUACGGCGC | -2.72 ± 0.17 | -2.41 ± 0.32 |
| AUGCAGCAAUAUUACGGUCU | -0.211 ± 0.078 | 0.0315 ± 0.091 |
| ACAGAGCAAUAUUACGAGCA | -3.84 ± 0.28 | -2.83 ± 0.31 |
| AGAAAGCAAUAUUACGAUGC | -2.16 ± 0.14 | -1.38 ± 0.13 |
| UACCAGCAAUAUUACGGGGC | -4.11 ± 0.29 | -2.72 ± 0.2 |
| GAUCAGCAAUAUUACGUCUG | -2.63 ± 0.11 | -1.84 ± 0.1 |
| CCAAAGCAAUAUUACGACAA | -2.42 ± 0.27 | -2.54 ± 0.28 |
| GUGCAGCAAUAUUACGCAUU | – | -2.38 ± 0.2 |
| GGGGAGCAAUAUUACGGCAU | -1.9 ± 0.13 | -1.53 ± 0.15 |
| CCAAAGCAAUAUUACGCUUA | -3.86 ± 0.24 | -3.12 ± 0.22 |
| UGAGAGCAAUAUUACGUAGA | -2.94 ± 0.33 | -1.28 ± 0.35 |
| CGAUAGCAAUAUUACGGCUA | -3.24 ± 0.49 | -1.08 ± 0.17 |
